{
  "source": "patent US6673896",
  "target": "T4 glycoprotein (human T cell surface protein T4) (human) (UniProt P01730)",
  "assay": "cell-based or functional assay",
  "data": [
    {"substance": "OKT4A monoclonal antibody", "values": [
      {"measurement": "VSV PSEUDOTYPE TITER, VSV(AIDS) +αT4A, CEM(T4+) cells", "value": 200, "unit": "PFU/ml"},
      {"measurement": "VSV PSEUDOTYPE TITER, VSV(AIDS) +αT4A, HSB2-T4+ cells", "value": 300, "unit": "PFU/ml"},
      {"measurement": "VSV PSEUDOTYPE TITER, VSV(AIDS) +αT4A, HeLa-T4+ cells", "value": 200, "unit": "PFU/ml"},
      {"measurement": "VSV PSEUDOTYPE TITER, VSV(AIDS) +αT4A, Raji-T4+ cells", "value": 150, "unit": "PFU/ml"}
    ]}
  ]
}
